In patent publication US20210063414A1, “METHODS FOR PREVENTING AND/OR TREATING BONE LOSS CONDITIONS BY MODULATING IRISIN” (Dana-Farber Cancer Institute, Inc., priority 2018, published 2021):

Assays:
Assay in all cases: Crosslinking/co-immunoprecipitation/mass spectrometry (TMT quantitative proteomics) to identify irisin receptors
Format in all cases: binding
[1] = target: T1, MLO-Y4 cell surface proteins (Mus musculus, UniProt E9Q557); settings: co-precipitated protein Dsp (DESP_MOUSE)
T1 construct: endogenous in cells; host or cells: MLO-Y4
Method: (§1) MLO-Y4 cells were seeded on 30×150 mm type-I collagen coated dishes as described in cell culture experiment. At 60% cell density, medium was switched to FreeStyle™ 293 Expression medium. After 4 hours incubation, the cells were chilled on ice for 10 minutes, followed by treatment of 10 nM his-tag irisin or his-tag adipsin for 20 minutes. The cells were then incubated with 1.5 mM DTSSP for 30 minutes on ice to do cross-linking, after washing with 15 ml cold PBS twice. The cross-linking was quenched by addition of a final concentration of 20 mM Tris-pH 7.5. The cells were then harvested and homogenized in 1 ml RIPA buffer containing proteaseinhibitor cocktailand phosphatase-inhibitor cocktail. Whole-cell lysates were homogenized by 10 times passages through a 22G needle fitted to a 3 ml syringe. Homogenized samples were rotated gently in cold room for 20 minutes followed by 15,000×g centrifugation for 10 minutes. After addition of a final concentration of 10 mM imidazole, supernatants were incubated with 100 μl Ni-NTA agarose for 1 hour. After centrifugation at 500×g for 1 minute, the supernatants were aspirated and 1 ml cold RIPA buffer containing 10 mM imidazole were added to the agarose. After 10 minutes rotation in cold room, the supernatants were aspirated and 1 ml cold RIPA buffer containing 30 mM imidazole were added to the agarose. After repeating the washing 3 times, 0.8 ml RIPA buffer containing 250 mM imidazole was added and the agarose was gently rotated in a cold room for 20 minutes. After centrifugation at 1000×g for 2 minutes, the supernatants were transferred to 1.5 ml tube and incubated with 100 μl 0.2% sodium deoxycholate and 100 μl 10% trichloroacetic acid in ice for 1 hour. After centrifugation at 12,000×g for 10 minutes at 4° C., the supernatants were removed and 1 ml cold acetone was added to the pellets followed by vortexing for 10 seconds. After one more washing with cold acetone, the pellets were dried at 37° C., and 39 μl PBS and 13 μl 4×NuPAGE LDS were added to the pellets with a final concentration of 5 mM DTT. Solubilized proteins were incubated at 65° C. for 20 minutes followed by incubation with a final concentration of 14 mM iodoacetamide for 45 minutes in the dark. 38 μl samples were loaded to 4-12% gradient SDS-PAGE for separation followed by Coomassie Blue staining. The gels were submitted to quantitative proteomics.
(§2) For in-gel digestions, gels were stained with Coomassie Blue and were excised into 8 equal segments for control and irisin lanes. Gel pieces were destained and dehydrated with 100% acetonitrile, vacuumed dried, and digested in 25 mM HEPES (pH 8.5) with 500 ng sequencing grade trypsin (Promega) and incubated for an overnight at 37° C. (Shevchenko et al. (1996) Anal. Chem. 68:850-858). Digests were treated with 1% formic acid and purified using C18 Stage-Tips as previously described (Rappsilber et al. (2007) Nat. Protoc. 2:1896-1906). Peptides were eluted with 70% acetonitrile and 1% formic acid, then dried using a speedvac. Isobaric labeling of digested peptides was accomplished using 6-plex tandem mass tag (TMT) reagents (Thermo Fisher Scientific, Rockford, Ill.). Reagents, 5.0 mg, were dissolved in 252 μl acetonitrile (ACN) and 5 μl of the solution was added to the digested peptides dissolved in 25 μl of 200 mM HEPES, pH 8.5. After 1 hour at room temperature, the reaction was quenched by adding 1 μl of 5% hydroxylamine. Labeled peptides were combined and acidified prior to C18 Stage-Tips desalting.
(§3) All LC-MS/MS experiments were performed on an Orbitrap Fusion™ Lumos mass spectrometer (Thermo Fisher Scientific, San Jose, Calif., USA) coupled with a Proxeon EASY-nLC™ 1200 LC pump (Thermo Fisher Scientific). Peptides were separated on a 100 μm inner diameter microcapillary column packed with 35 cm of Accucore™ C18 resin (1.8 μm, 100 Å, Thermo Fisher Scientific). […]

[2] = target: T2, MLO-Y4 cell surface proteins (Mus musculus, UniProt G3X9C2); settings: co-precipitated protein Nccrp1 (FBX50_MOUSE)
T2 construct: endogenous in cells; host or cells: MLO-Y4
T2 sequence (G3X9C2 1-266): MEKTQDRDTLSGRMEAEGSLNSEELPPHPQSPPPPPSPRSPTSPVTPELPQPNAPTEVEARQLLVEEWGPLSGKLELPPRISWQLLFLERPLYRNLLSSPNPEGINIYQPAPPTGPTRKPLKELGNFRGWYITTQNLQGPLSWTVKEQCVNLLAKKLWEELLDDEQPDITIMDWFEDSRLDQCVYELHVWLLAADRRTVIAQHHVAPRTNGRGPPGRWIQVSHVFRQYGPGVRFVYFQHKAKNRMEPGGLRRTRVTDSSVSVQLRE
Method: as §1, §2, §3

[3] = target: T3, MLO-Y4 cell surface proteins (Mus musculus, UniProt Q6ZPE2); settings: co-precipitated protein Sbf1 (MTMR5_MOUSE)
T3 construct: endogenous in cells; host or cells: MLO-Y4
Method: as §1, §2, §3

[4] = target: T4, MLO-Y4 cell surface proteins (Mus musculus, UniProt Q6ZQ93); settings: co-precipitated protein Usp34 (UBP34_MOUSE)
T4 construct: endogenous in cells; host or cells: MLO-Y4
Method: as §1, §2, §3

[5] = target: T5, MLO-Y4 cell surface proteins (Mus musculus, UniProt Q8VCI5); settings: co-precipitated protein Pex19 (PEX19_MOUSE)
T5 construct: endogenous in cells; host or cells: MLO-Y4
T5 sequence (Q8VCI5 1-299): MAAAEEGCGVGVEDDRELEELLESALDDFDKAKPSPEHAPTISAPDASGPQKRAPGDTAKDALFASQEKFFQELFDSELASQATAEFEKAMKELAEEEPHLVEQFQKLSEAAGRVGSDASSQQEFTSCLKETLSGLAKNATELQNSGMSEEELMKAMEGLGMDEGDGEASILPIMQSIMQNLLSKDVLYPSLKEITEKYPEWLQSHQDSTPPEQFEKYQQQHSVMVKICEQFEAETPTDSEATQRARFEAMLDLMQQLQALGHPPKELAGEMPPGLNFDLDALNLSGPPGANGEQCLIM
Method: as §1, §2, §3

T1 sequence (E9Q557 whole entry): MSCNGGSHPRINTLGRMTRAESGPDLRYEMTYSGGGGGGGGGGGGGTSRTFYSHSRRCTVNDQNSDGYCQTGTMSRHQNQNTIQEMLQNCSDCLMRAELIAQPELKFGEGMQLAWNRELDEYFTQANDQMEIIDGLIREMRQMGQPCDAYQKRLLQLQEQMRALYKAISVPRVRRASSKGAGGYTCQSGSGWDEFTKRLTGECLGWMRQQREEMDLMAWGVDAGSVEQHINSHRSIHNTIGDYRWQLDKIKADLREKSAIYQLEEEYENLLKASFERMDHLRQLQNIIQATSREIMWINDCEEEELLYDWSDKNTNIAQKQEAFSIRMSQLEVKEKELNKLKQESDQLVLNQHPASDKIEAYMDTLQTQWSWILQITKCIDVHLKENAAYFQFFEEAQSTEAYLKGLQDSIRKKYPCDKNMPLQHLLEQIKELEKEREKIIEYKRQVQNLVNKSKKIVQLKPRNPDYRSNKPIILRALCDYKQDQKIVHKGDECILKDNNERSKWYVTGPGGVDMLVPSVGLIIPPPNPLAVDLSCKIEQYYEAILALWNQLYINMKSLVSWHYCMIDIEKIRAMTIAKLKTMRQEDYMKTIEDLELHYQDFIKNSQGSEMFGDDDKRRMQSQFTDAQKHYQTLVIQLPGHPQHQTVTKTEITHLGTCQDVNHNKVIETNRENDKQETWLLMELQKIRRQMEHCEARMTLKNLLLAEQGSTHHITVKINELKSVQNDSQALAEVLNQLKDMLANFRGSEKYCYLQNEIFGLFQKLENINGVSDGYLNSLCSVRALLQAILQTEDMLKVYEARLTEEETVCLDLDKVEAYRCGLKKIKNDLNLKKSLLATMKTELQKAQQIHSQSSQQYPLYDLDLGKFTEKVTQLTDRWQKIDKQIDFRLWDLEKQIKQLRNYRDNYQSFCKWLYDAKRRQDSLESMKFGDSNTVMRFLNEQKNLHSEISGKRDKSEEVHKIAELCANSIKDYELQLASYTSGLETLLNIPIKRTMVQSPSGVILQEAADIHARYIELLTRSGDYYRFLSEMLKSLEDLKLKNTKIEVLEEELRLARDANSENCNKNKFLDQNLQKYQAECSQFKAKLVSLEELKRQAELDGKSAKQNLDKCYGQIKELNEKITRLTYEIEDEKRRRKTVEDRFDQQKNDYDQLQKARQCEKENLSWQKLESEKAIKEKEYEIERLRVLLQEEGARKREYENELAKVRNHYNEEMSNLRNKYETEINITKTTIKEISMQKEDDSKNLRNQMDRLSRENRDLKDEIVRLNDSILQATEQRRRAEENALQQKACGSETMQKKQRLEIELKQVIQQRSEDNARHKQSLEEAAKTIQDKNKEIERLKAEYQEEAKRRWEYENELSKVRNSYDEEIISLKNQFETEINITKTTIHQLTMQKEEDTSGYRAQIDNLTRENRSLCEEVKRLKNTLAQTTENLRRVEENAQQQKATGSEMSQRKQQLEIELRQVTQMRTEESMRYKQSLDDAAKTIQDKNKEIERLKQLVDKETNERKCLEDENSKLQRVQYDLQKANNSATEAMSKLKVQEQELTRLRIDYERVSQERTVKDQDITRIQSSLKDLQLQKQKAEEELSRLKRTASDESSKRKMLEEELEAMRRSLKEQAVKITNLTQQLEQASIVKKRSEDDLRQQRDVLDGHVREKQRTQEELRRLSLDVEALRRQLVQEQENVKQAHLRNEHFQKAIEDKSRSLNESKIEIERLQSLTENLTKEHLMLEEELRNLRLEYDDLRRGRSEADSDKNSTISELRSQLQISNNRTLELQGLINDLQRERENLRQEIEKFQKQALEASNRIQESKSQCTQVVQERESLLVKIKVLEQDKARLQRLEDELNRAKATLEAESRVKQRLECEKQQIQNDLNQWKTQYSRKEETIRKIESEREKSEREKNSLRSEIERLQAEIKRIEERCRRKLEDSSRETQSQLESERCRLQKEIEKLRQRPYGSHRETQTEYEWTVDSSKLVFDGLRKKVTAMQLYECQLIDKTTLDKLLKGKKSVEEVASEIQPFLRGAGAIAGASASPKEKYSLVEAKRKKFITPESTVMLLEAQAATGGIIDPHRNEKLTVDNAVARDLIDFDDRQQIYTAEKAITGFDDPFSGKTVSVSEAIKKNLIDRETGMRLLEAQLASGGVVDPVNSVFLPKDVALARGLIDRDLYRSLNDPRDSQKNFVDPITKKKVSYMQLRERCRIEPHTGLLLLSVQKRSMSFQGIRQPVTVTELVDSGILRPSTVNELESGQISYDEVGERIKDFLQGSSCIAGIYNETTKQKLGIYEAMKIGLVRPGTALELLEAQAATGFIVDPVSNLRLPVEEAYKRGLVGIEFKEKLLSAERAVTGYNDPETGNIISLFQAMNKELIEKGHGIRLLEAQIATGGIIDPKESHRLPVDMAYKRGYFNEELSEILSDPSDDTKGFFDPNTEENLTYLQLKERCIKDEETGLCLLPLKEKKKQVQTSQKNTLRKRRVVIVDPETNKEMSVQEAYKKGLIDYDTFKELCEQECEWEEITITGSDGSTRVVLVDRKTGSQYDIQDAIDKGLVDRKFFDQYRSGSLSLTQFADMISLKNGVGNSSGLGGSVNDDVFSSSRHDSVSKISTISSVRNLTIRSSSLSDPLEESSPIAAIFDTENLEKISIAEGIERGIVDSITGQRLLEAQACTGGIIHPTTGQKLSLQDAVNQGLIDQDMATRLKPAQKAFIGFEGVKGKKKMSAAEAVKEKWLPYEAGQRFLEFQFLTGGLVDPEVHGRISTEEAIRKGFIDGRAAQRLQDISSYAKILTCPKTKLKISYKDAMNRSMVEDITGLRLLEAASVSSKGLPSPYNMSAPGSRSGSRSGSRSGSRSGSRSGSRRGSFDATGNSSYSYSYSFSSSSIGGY
T3 sequence (Q6ZPE2 whole entry): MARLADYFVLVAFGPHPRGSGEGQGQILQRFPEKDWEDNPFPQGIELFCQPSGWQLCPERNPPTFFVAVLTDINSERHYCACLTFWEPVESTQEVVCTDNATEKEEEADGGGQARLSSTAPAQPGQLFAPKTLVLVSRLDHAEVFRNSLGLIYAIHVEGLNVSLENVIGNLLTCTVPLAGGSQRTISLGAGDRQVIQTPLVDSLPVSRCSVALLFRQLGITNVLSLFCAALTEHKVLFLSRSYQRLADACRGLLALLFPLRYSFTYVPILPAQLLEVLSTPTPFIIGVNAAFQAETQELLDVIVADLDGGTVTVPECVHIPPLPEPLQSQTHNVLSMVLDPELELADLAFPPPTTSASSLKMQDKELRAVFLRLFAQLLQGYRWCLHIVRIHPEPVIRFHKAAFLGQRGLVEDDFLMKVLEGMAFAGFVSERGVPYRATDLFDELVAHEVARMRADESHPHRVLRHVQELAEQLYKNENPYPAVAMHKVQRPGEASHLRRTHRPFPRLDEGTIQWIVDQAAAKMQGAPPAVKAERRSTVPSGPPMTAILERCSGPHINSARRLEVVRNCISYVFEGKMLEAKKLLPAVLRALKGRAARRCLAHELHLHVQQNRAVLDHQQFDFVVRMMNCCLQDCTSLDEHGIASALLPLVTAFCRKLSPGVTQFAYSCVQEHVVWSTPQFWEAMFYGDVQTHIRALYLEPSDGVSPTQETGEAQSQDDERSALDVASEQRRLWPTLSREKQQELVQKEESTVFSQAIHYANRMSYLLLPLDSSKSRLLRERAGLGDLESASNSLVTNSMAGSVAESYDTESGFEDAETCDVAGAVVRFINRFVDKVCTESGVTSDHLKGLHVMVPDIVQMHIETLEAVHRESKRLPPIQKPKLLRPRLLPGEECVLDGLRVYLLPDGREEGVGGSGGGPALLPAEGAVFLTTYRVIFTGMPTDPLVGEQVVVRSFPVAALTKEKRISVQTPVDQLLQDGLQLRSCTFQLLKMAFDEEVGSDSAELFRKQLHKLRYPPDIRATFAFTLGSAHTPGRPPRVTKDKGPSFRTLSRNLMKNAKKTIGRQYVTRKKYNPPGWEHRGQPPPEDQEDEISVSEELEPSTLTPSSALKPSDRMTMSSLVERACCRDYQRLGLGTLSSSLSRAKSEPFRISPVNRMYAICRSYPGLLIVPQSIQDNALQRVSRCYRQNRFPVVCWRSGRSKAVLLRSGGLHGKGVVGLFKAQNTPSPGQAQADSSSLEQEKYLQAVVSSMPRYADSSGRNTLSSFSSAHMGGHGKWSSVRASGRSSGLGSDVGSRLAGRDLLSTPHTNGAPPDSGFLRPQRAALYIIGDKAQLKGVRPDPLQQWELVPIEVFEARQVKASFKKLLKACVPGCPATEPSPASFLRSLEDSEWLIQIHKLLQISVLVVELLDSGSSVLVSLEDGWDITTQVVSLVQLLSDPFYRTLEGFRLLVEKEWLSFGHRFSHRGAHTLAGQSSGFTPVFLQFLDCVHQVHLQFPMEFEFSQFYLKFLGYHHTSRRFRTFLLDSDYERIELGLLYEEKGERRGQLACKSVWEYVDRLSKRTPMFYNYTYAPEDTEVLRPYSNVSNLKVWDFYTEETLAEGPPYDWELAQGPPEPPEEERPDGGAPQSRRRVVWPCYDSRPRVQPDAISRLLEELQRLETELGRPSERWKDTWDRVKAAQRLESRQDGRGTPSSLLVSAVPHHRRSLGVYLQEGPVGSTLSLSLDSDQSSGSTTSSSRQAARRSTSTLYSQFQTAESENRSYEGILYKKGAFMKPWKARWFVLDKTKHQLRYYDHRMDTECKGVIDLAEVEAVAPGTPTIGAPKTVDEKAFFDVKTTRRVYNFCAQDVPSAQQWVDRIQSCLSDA

adipsin gave a TMT signal-to-noise ratio [1] of 79.7679, a TMT signal-to-noise ratio [2] of 113.564 and a TMT signal-to-noise ratio [3] of 71.1304. For the same substance, the TMT signal-to-noise ratio [4] was 1044.49 and the TMT signal-to-noise ratio [5] was 60.4801.
